These substances were tested against human factor Xa (Enzyme Research Laboratories, Inc.) (human) (UniProt P00742) (assay: chromogenic FXa inhibition).
Sequence of human factor Xa (Enzyme Research Laboratories, Inc.) (human) (P00742 41-179 limits assumed, chain 1 of 2): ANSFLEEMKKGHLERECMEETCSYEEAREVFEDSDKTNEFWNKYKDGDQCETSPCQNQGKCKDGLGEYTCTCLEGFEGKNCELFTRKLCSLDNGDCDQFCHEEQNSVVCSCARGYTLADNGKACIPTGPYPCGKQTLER
Sequence of human factor Xa (Enzyme Research Laboratories, Inc.) (human) (P00742 235-488 limits assumed, chain 2 of 2): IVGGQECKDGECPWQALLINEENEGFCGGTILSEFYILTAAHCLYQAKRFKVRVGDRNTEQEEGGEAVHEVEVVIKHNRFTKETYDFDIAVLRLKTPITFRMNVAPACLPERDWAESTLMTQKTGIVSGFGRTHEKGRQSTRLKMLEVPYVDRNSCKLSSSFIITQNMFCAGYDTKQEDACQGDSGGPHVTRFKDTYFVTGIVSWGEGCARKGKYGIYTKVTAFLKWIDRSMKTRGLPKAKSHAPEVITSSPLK
With “3-phenoxyproprionic-Y-Chg-R-NH2 (peptide)” the Ki was under 100 µM. 5-Bzim-CO-Chg-R-L-P-NH2 (peptide) gave a Ki of under 100 µM. 5-Hic-Chg-R-NH2 (peptide) was tested, and the Ki was under 100 µM. “(2-benzofuroyl)-Phe(pNH2)-Chg-Dab(CH═N(CH3)2)-Leu-Pro-NH2 (peptide)” showed a Ki of under 100 µM. With “(2-benzofuroyl)-Tyr-Chg-Arg-Pen-Pro-NH2 (peptide)” the Ki was under 100 µM. For “(2-benzofuroyl)-pAph-Chg-Arg-Pen(CH2COOH)-Pro-NH2 (peptide)”, the Ki was under 100 µM. “(2-benzofuroyl)-pAph-Chg-PalMe(3)-NH2 (peptide)” showed a Ki of under 100 µM. “(2-benzofuroyl)-pAph-Chg-PalMe(3)-Pen(CH2COOH)-Pro-NH2 (peptide)” gave a Ki of under 100 µM. “(2-fluorobenzoyl)-pAph-Chg-NH-(4-trimethyl-ammonium benzyl) (peptide)” gave a Ki of under 100 µM. Work on “(2-furoyl)-pAph-Chg-NH-1-[3(N-methylpyridyl)]-1-(methylacetate)ethyl (peptide)” yielded a Ki of under 100 µM. With “(2-furoyl)-pAph-Chg-NH-(4-trimethyl-ammonium benzyl) (peptide)” the Ki was under 100 µM. “(2-pyridoyl)-pAph-Chg-PalMe(3)-NH2 (peptide)” showed a Ki of under 100 µM. “(2-quinolinoyl)-pAph-Chg-PalMe(3)-NH2 (peptide)” showed a Ki of under 100 µM. “(2-thienylacetyl)-pAph-Chg-NH-(4-trimethyl-ammonium benzyl) (peptide)” showed a Ki of under 100 µM. For “(3,4-dichlorobenzoyl)-pAph-Chg-NH-(4-trimethyl-ammonium benzyl) (peptide)”, the Ki was under 100 µM. “(3-pyridoyl)-Nal(2)-Chg-Arg-Leu-Pro-NH2 (peptide)” gave a Ki of under 100 µM. “(5-pyrazinoyl)Nal(2)-Chg-Arg-Leu-Pro-NH2 (peptide)” showed a Ki of under 100 µM. “(Alloc)-pAph-Chg-Arg-Leu-Pro-NH2 (peptide)” gave a Ki of under 100 µM. With “(Ethoxycarbonyl)-pAph-Chg-NH-(4-trimethyl-ammonium benzyl) (peptide)” the Ki was under 100 µM. Substance “(N-(5-methyl-2-thienoyl)-pAph-Chg-NH-(4-trimethyl-ammonium benzyl) (peptide)” has a Ki of under 100 µM. With (iBu)Y-I-R-OH (peptide) the Ki was under 100 µM. “(pOH)C6H4-CH2CH2(OH)-CO-I-R-L-Sar-NH2 (peptide)” showed a Ki of under 100 µM. With “(t-Butoxycarbonyl)-pAph-Chg-NH-(4-trimethyl-ammonium benzyl) (peptide)” the Ki was under 100 µM. Substance “Ac-(3,5,5-Me-3-nHexyl)Y-I-R-NH2 (peptide)” has a Ki of under 100 µM. Substance Ac-(4-MeO-Bzl)Y-I-R-NH2 (peptide) has a Ki of under 100 µM. For Ac-(4-pyridil-CH2-)Y-I-R-NH2 (peptide), the Ki was under 100 µM. For “Ac-(Bzl)G-(Chx)Gly-(3-GuanidoPropyl)G-NH2 (peptide)”, the Ki was under 100 µM. Ac-(Bzl)Y-I-R-NH2 (peptide) showed a Ki of under 100 µM. Work on Ac-(iBu)F(pNH2)-Chg-R-NH2 (peptide) yielded a Ki of under 100 µM. With Ac-(iBu)Y-Chg-R-NH2 (peptide) the Ki was under 100 µM. For Ac-(iBu)Y-I-R-NH2 (peptide), the Ki was under 100 µM. Work on Ac-(iBu-Nal(2)-Chg-R-L-P-NH2 (peptide) yielded a Ki of under 100 µM. Work on Ac-(nBu)Y-I-R-NH2 (peptide) yielded a Ki of under 100 µM. Work on “Ac-D-pAph-Chg-Arg-(carboxyethyl)Gly-Pro-NH2 (peptide)” yielded a Ki of under 100 µM. With “Ac-D-pAph-Chg-Arg-Cys-(CH2-COOH)-Pro-NH2 (peptide)” the Ki was under 100 µM. Work on Ac-D-pAph-Chg-Arg-Gla-Pro-NH2 (peptide) yielded a Ki of under 100 µM. Substance Ac-D-pAph-Chg-Arg-Leu-Pro-NH2 (peptide) has a Ki of under 100 µM. In the case of “Ac-D-pAph-Chg-Arg-N(carboxymethyl)Gly-Pro-NH2 (peptide)”, the Ki is reported as under 100 µM. For Ac-D-pAph-Chg-Arg-NH2 (peptide), the Ki was under 100 µM. “Ac-D-pAph-Chg-Arg-N[1(1,3-dicarboxy)propyl)]Gly-Pro-NH2 (peptide)” gave a Ki of under 100 µM. Work on “Ac-D-pAph-Chg-PalMe(3)-Leu-Pro-NH2 (peptide)” yielded a Ki of under 100 µM. In the case of Ac-F(pNH2)-Chg-R-NH2 (peptide), the Ki is reported as under 100 µM. Work on “Ac-Nal(2)-Cha-R-D(O-Allyl)-NH2 (peptide)” yielded a Ki of under 100 µM.
